The record followed here is publication PMC10499894.

Where “and” joins values, the source holds several entries; their conditions need not be identical. Equal entries are not always repeated.

The target in test [1] is TadD, native sequence, tag not given (P. aeruginosa PAO1). Put plainly: pull-down; cysteine mutants of RcpA and TadD co-expressed in E. coli, single strep tag pulldown; RcpA-TadD particles counted on five negative stain EM micrographs per mutant (Laplacian-of-Gaussian blob detection), SDS-PAGE.
Test [2] addresses _(strep)RcpA, N-terminally strep-tagged RcpA (P. aeruginosa PAO1) (UniProt Q9HW96). Put plainly: pull-down; RcpA constructs with the strep tag at the N-terminus co-expressed with TadD in E. coli; single strep tag pulldown; SDS-PAGE, Western blot and negative stain EM 2D class averages. In general terms: A western blot detects proteins with antibodies after separation by electrophoresis.

In test [3] the target is RcpA, endogenous in P. aeruginosa PAO1 (P. aeruginosa PAO1 (endogenous)) (UniProt Q9HW96). Description: pull-down; P. aeruginosa PAO1 with chromosomal tadD_(strep), native expression levels; membranes extracted with DDM; Strep-Tactin Sepharose; eluate seen by anti-strep Western blot and negative stain EM 2D class averages.
Test [4] has as its target TadD D139C (P. aeruginosa PAO1). Description: pull-down; cysteine mutants of RcpA and TadD co-expressed in E. coli, single strep tag pulldown; RcpA-TadD particles counted on five negative stain EM micrographs per mutant (Laplacian-of-Gaussian blob detection), SDS-PAGE.
The target in test [5] is RcpA_(strep), C-terminally strep-tagged RcpA (P. aeruginosa PAO1) (UniProt Q9HW96). Put plainly: cryo-EM structure; RcpA_(strep)-TadD_(FLAG) complex co-expressed in E. coli, double pulldown (StrepTrap, ANTI-FLAG M2), 0.06% DDM; graphene oxide support and tilted collection; C13 map at 2.7 Å, focussed TadD map; on holey carbon grids TadD was stripped off.

For the substance “RcpA L414C (from UniProt Q9HW96 1-416) (natural protein)”, in test [1], the RcpA-TadD particles relative to native levels came to 9%. For orientation: stoichiometry N means the number of molecules, sites or subunits per partner or assembly. In the case of “_(strep)RcpA, N-terminally strep-tagged RcpA (from UniProt Q9HW96 1-416) (natural protein)”, the stoichiometry N in test [2] was 13 and 14.

For “RcpA, endogenous in P. aeruginosa PAO1 (from UniProt Q9HW96 1-416) (natural protein)”, in test [3], the stoichiometry N is 13 and 14. As to “RcpA S415C (from UniProt Q9HW96 1-416) (natural protein)”, in test [1], the RcpA-TadD complex relative to native levels turned out to be 10% and the RcpA-TadD particles relative to native levels came out at 14%. In turn, “RcpA, native sequence, in the cysteine cross-linking assay (tag not stated) (from UniProt Q9HW96 1-416) (natural protein)” showed a RcpA-TadD particles relative to native TadD in test [4] of 2%.

As for “RcpA_(strep), C-terminally strep-tagged RcpA (from UniProt Q9HW96 1-416) (natural protein)”, in test [5], the stoichiometry N was 13 and 14.
